Measurements as given in publication PMC9751088, “Structure of the Acidobacteria homodimeric reaction center bound with cytochrome c” (Nature Communications, 2022).

Tests used:
[1] = biological target: T1, CabRC core (PscA homodimer) in the CabRC complex (Chloracidobacterium thermophilum, UniProt G2LDR8); experiment: cryo-EM structure ([…] Å CabRCS; […] Å CabRCL); HPLC of pigments; assay type: binding; details: one transmembrane molecule in each PscA
T1 construct: gene Cabther_A2188; native complex from C. thermophilum membranes, Triton X-100, untagged; PscA homodimer with 11 TMHs each, insertion N440-H644; smaller form CabRCS without and larger form CabRCL with PscB and PscZ; with c-type cytochrome PscX; c-type cytochrome PscY; Reaction center subunit PscU; Reaction center subunit PscV; Reaction center subunit PscW

[2] = biological target: PscA (Chloracidobacterium thermophilum); experiment: cryo-EM structure; CabRCS (smaller form, ten subunits), native complex purified from C. thermophilum membranes in Triton X-100; 2.22 Å; 20 mM Tris-HCl pH 7.6, 10 mM ascorbic acid, 0.03% Triton X-100
PscB = biological target: T2, PscB (Chloracidobacterium thermophilum, UniProt G2LDR7 1-179); experiment: cryo-EM structure; CabRCL (larger form with PscB and PscZ), native complex purified from C. thermophilum membranes in Triton X-100; 2.61 Å global, cytoplasmic region ~3.5 to ~5.0 Å; 20 mM Tris-HCl pH 7.6, 10 mM ascorbic acid, 0.03% Triton X-100; details: both partners purified
T2 construct: Only in the larger form CabRCL; also called PscB/CabRC
T2 sequence (looked up): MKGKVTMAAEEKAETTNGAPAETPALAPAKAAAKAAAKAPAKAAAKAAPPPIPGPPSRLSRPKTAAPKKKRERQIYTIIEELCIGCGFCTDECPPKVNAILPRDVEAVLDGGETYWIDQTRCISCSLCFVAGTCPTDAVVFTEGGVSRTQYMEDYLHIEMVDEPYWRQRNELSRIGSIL

CC(C)=CCC/C(C)=C/C=C/C(C)=C/C=C/C(C)=C/C=C/C=C(C)/C=C/C=C(C)/C=C/C=C(\C)CCC=C(C)C [lycopene]
cryo-EM structure (2.22 Å CabRCS; 2.61 Å CabRCL); HPLC of pigments [1]: we identified one transmembrane lycopene molecule in each PscA

PscA (natural protein)
stoichiometry N [2]: 2

B1: PscZ (natural protein, Chloracidobacterium thermophilum, UniProt G2LHG2 1-60, looked up)
chain: MARTPEEIVKRYKEANIWLRHWKQQIGLAKDEEQREMFTQYYEERVQEIAALEEPYRAAL
notes: Only in the larger form CabRCL
binding result (PscB): binds
